Test [1] deals with OG488-TFPIα-BR. The test can be described thus: fluorescence polarisation; steady-state fluorescence anisotropy; FV species or APCi titrated (0–100 nM) into 25 nM OG488-TFPIα-BR and 50 μM PCPS vesicles in HBS/Ca2+/PEG, pH 7.4 (20 mM Hepes, 150 mM NaCl, 5 mM CaCl2, 0.1% PEG-8000), 25 °C; fit to a model for tight binding. In general terms: Polarisation of emitted light reports the rotation of a fluorescent probe.

The target in the next test is FV-BR fragment (human) (UniProt P12259).
Test [2] concerns the target OG488-TFPIα-BR.

Sequence of FV-BR fragment (human) (P12259 979-1036): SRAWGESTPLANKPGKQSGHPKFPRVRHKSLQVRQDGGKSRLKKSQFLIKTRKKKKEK
Sequence of Human FVa (P12259 29-737): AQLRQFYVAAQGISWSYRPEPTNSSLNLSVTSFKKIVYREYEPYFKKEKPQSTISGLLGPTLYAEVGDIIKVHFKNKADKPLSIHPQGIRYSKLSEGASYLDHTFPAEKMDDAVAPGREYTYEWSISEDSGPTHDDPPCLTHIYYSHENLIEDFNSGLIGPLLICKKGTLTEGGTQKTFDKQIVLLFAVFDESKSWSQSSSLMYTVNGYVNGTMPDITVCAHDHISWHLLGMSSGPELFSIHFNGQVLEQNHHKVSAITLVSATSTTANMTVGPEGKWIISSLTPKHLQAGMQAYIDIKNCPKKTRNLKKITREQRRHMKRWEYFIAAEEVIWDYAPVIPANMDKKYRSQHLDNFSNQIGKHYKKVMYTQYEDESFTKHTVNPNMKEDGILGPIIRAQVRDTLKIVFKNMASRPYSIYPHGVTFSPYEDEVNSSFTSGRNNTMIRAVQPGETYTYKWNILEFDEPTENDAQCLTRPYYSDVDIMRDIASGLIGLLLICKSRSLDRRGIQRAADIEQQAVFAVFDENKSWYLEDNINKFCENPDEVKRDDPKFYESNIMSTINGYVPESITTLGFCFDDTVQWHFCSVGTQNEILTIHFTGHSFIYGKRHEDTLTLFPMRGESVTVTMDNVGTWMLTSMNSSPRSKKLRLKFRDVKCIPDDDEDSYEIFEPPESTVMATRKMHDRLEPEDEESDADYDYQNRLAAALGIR
Sequence of Human FVa (P12259 1574-2224): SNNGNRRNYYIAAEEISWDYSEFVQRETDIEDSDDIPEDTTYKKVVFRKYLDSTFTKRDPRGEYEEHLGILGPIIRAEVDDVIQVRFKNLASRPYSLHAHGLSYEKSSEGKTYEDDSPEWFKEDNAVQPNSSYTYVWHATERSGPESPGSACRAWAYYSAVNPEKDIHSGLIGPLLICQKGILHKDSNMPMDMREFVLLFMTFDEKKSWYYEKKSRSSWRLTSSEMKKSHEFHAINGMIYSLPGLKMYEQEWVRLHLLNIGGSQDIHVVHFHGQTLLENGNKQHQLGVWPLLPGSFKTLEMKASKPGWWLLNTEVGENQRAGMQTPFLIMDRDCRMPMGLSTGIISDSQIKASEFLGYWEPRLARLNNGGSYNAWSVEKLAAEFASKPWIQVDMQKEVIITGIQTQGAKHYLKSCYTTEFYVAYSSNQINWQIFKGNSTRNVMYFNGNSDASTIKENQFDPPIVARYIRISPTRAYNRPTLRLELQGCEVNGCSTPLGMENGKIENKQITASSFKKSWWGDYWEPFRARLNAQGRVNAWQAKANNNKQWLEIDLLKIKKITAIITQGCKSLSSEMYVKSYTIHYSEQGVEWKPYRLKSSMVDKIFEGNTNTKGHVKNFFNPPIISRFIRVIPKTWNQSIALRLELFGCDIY

A word on the Kd: it is a measure of binding affinity in units of concentration. Broadly, the stoichiometry N is the number of molecules, sites or subunits per partner or assembly. Take FV-810-R506Q: in the test with OG488-TFPIα-BR [1], the equilibrium dissociation constant (Kd) was 1.72 nM and the stoichiometry N is 1.43 mol/mol.

Consider FV-810, for which the Reduced fold change of inactivation by APC, +FV-BR (kobs no BR divided by kobs +BR; % peak thrombin in TGA; 20 nM FV species, 250 nM BR fragment, 1 nM APC) with FV-BR fragment (human) is 17 fold. In the test with OG488-TFPIα-BR [2], this substance displayed a Reduced fold change of inactivation by APC, +TFPIα-BR (kobs no BR divided by kobs +BR; % peak thrombin in TGA; 20 nM FV species, 250 nM BR fragment, 1 nM APC) of 17 fold. In the test with OG488-TFPIα-BR [1], the dissociation constant Kd is 1.78 nM and the stoichiometry N stood at 1.29 mol/mol.

On to FV-810-R306Q, for which, in the test with OG488-TFPIα-BR [1], the Kd is 2.15 nM and the stoichiometry N is 1.44 mol/mol.

As for FV-810-R306Q/R506Q, in the test with OG488-TFPIα-BR [1], the dissociation constant (Kd) was found to be 2.46 nM and the stoichiometry N came to 1.18 mol/mol.

FV-short (natural protein): the Reduced fold change of inactivation by APC, +FV-BR (kobs no BR divided by kobs +BR; % peak thrombin in TGA; 20 nM FV species, 250 nM BR fragment, 1 nM APC) with FV-BR fragment (human) amounted to 15.7 fold.

Turning to “Human FVa (from UniProt P12259 29-737; P12259 1574-2224) (complex)”, the Reduced fold change of inactivation by APC, +FV-BR (kobs no BR divided by kobs +BR; % peak thrombin in TGA; 20 nM FV species, 250 nM BR fragment, 1 nM APC) with FV-BR fragment (human) worked out at 0.9 fold.

As to “FV-s46 (from UniProt P12259 29-990; P12259 1037-2224)”, in the test with OG488-TFPIα-BR [1], the Kd is 2.17 nM and the stoichiometry N was 1.78 mol/mol.

For the origin of these results see paper PMC9637641.
